{"source": "the supplement of paper PMC10724198", "note": "± gives the standard deviation of the averaged measurements.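 Further: PSI is a weighted mean of sequencing reads over stability bins, variants kept only with over 10 reads, mCherry proximal and sfGFP distal, peptide attached via GGGS linker.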", "data": [{"system": "Saccharomyces cerevisiae", "assay": "protein stability index of tFT-peptide fusion (C-terminal peptide) (PSI (0-1 scale)); higher = more stable (slower turnover)", "details": "genetic background: wild type; temperature: 30 C", "procedure": "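Multiplexed protein stability (MPS) profiling in S. cerevisiae. Random 12-aa peptides (tFT-X12 library) are fused to the C-terminus of a sfGFP-mCherry tandem fluorescent timer, after mCherry and a GGGS linker. Cells are FACS-sorted into 8 mCherry/sfGFP bins and deep-sequenced. The protein stability index (PSI) is the read-weighted bin average, scaled from 0 (unstable) to 1 (stable). Only peptides with >10 reads are reported; cells were grown at 30 °C in SC-His with glucose.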", "values": [{"sequence": "DLSSFGRLGCQG", "protein stability index": "0.871 ± 0.037"}, {"sequence": "DMHTPATDSPLP", "protein stability index": "0.783 ± 0.016"}, {"sequence": "DMVSLGLAILIT", "protein stability index": "0.492 ± 0.021"}, {"sequence": "DMWSMFSFLYYV", "protein stability index": "0.507 ± 0.012"}, {"sequence": "DNKEIEQTIRNK", "protein stability index": "0.6304 ± 0.0041"}, {"sequence": "DPGKWMRCHICE", "protein stability index": "0.752 ± 0.035"}, {"sequence": "DPPPPSPPASMP", "protein stability index": "0.663 ± 0.036"}, {"sequence": "DPQQRSNPKPII", "protein stability index": "0.661 ± 0.032"}, {"sequence": "DPRRNGAPLRSI", "protein stability index": "0.676 ± 0.039"}, {"sequence": "DPTPLALSPDHP", "protein stability index": "0.63 ± 0.057"}, {"sequence": "DPYYGFRMRIPF", "protein stability index": "0.691 ± 0.026"}, {"sequence": "DQVSGYNVWFGT", "protein stability index": "0.698 ± 0.028"}, {"sequence": "DRAPPPPRSSPL", "protein stability index": "0.733 ± 0.076"}, {"sequence": "DRLGADCPLLSG", "protein stability index": "0.734 ± 0.028"}, {"sequence": "DRLTLEKKGRGM", "protein stability index": "0.684 ± 0.016"}, {"sequence": "DRPNIGIKPKRA", "protein stability index": "0.613 ± 0.086"}, {"sequence": "DRPYPTTFRSSR", "protein stability index": "0.66 ± 0.017"}, {"sequence": "DRRTLSLDLCGS", "protein stability index": "0.644 ± 0.045"}, {"sequence": "DRSMRPISKRWE", "protein stability index": "0.668 ± 0.037"}, {"sequence": "DRSTGVNKSFPS", "protein stability index": "0.7 ± 0.074"}, {"sequence": "DRSTIKIAIHRQ", "protein stability index": "0.656 ± 0.056"}, {"sequence": "DRVHVSNGYLEF", "protein stability index": "0.684 ± 0.1"}, {"sequence": "DRVRGLCIPNGP", "protein stability index": "0.681 ± 0.043"}, {"sequence": "DSIVWVGVTYFL", "protein stability index": "0.553 ± 0.012"}, {"sequence": "DSLSVSLSLVRG", "protein stability index": "0.696 ± 0.028"}, {"sequence": "DSPLSHPPSPAP", "protein stability index": "0.6235 ± 0.0019"}, {"sequence": "DSPPHPPPASAP", "protein stability index": "0.714 ± 0.017"}, {"sequence": "DSRRDYLHLVFT", "protein stability index": "0.646 ± 0.023"}, {"sequence": "DSSEGRVRIRIR", "protein stability index": "0.714 ± 0.063"}, {"sequence": "DSSFPKSVSKQA", "protein stability index": "0.679 ± 0.024"}, {"sequence": "DSSLDWGREARA", "protein stability index": "0.649 ± 0.075"}, {"sequence": "DSTWGLGLFSVP", "protein stability index": "0.64 ± 0.033"}, {"sequence": "DSVRRMAEGKRE", "protein stability index": "0.672 ± 0.029"}, {"sequence": "DSVVGFCGYWGG", "protein stability index": "0.706 ± 0.088"}, {"sequence": "DSWGPGVSSRRW", "protein stability index": "0.732 ± 0.044"}, {"sequence": "DTRNKHTKSKCQ", "protein stability index": "0.741 ± 0.051"}, {"sequence": "DTSPSPPPLSVL", "protein stability index": "0.693 ± 0.017"}, {"sequence": "DTTSSPPLPLLV", "protein stability index": "0.623 ± 0.035"}, {"sequence": "DTVYSRAIAANA", "protein stability index": "0.545 ± 0.012"}, {"sequence": "DVAWHNYRISGK", "protein stability index": "0.673 ± 0.015"}, {"sequence": "DVDYGEIDYQIK", "protein stability index": "0.708 ± 0.011"}, {"sequence": "DVGSRGPPHTDG", "protein stability index": "0.687 ± 0.074"}, {"sequence": "DVILVSLPPPSV", "protein stability index": "0.676 ± 0.049"}, {"sequence": "DVLASSSVWFLI", "protein stability index": "0.624 ± 0.0057"}, {"sequence": "DVLGCFDYLLFR", "protein stability index": "0.623 ± 0.03"}, {"sequence": "DVLRLRSVFFCG", "protein stability index": "0.631 ± 0.047"}, {"sequence": "DVPKSGLEVWRR", "protein stability index": "0.627 ± 0.067"}, {"sequence": "DVQISSGRGVCS", "protein stability index": "0.672 ± 0.054"}, {"sequence": "DVRMGCVGVSNI", "protein stability index": "0.71 ± 0.0088"}, {"sequence": "DVRNDSSLIIQI", "protein stability index": "0.688 ± 0.053"}, {"sequence": "DVSIFTNELGFY", "protein stability index": "0.763 ± 0.01"}, {"sequence": "DWFGGSVRVDEN", "protein stability index": "0.693 ± 0.055"}, {"sequence": "DWGAGAASRADR", "protein stability index": "0.708 ± 0.015"}, {"sequence": "DWHLLVRRPFSR", "protein stability index": "0.714 ± 0.042"}, {"sequence": "DWWFGQVYLSKE", "protein stability index": "0.705 ± 0.011"}, {"sequence": "DWWLPLFDWAKL", "protein stability index": "0.872 ± 0.025"}, {"sequence": "DYLVRGPPRASG", "protein stability index": "0.629 ± 0.021"}, {"sequence": "DYNQWSAHHYGV", "protein stability index": "0.693 ± 0.029"}, {"sequence": "DYRLWFRGLPSL", "protein stability index": "0.697 ± 0.035"}, {"sequence": "EAAVTESVTGKR", "protein stability index": "0.679 ± 0.0088"}, {"sequence": "EAIMNSLLFAVD", "protein stability index": "0.664 ± 0.0088"}, {"sequence": "EAKRSRCESAEI", "protein stability index": "0.672 ± 0.01"}, {"sequence": "EARLGGESSAWG", "protein stability index": "0.655 ± 0.053"}, {"sequence": "EAVNLDSWAAGQ", "protein stability index": "0.828 ± 0.058"}, {"sequence": "EAYRVTYPYMYP", "protein stability index": "0.726 ± 0.0086"}, {"sequence": "ECFVCGGGILGG", "protein stability index": "0.637 ± 0.09"}, {"sequence": "ECGLGGGGGLGV", "protein stability index": "0.689 ± 0.077"}, {"sequence": "ECSPRQVPSLAE", "protein stability index": "0.694 ± 0.028"}, {"sequence": "ECVPEVACCPWR", "protein stability index": "0.729 ± 0.03"}, {"sequence": "EDCTKNPERDNS", "protein stability index": "0.68 ± 0.048"}, {"sequence": "EDMRGATGRGAG", "protein stability index": "0.669 ± 0.028"}, {"sequence": "EDTMGKTASHTR", "protein stability index": "0.699 ± 0.019"}, {"sequence": "EEEGRRREEETS", "protein stability index": "0.67 ± 0.041"}, {"sequence": "EEGARAAGGEPQ", "protein stability index": "0.68 ± 0.036"}, {"sequence": "EEREGPVGKGGG", "protein stability index": "0.708 ± 0.044"}, {"sequence": "EESNEERDQEKT", "protein stability index": "0.63 ± 0.0065"}, {"sequence": "EEVKKRTLKVID", "protein stability index": "0.738 ± 0.021"}, {"sequence": "EEWRRRSTKERR", "protein stability index": "0.641 ± 0.013"}, {"sequence": "EFALVFVRARRA", "protein stability index": "0.586 ± 0.047"}, {"sequence": "EFANKGIKINTA", "protein stability index": "0.625 ± 0.019"}, {"sequence": "EFLGTVRSVWRK", "protein stability index": "0.669 ± 0.086"}, {"sequence": "EFLVSVRPFASP", "protein stability index": "0.696 ± 0.032"}, {"sequence": "EFPSFHDQGAYM", "protein stability index": "0.738 ± 0.062"}, {"sequence": "EFSWGGLAGSFG", "protein stability index": "0.68 ± 0.024"}, {"sequence": "EFTGVYLWERGW", "protein stability index": "0.7 ± 0.041"}, {"sequence": "EGDGQGGGGQGG", "protein stability index": "0.695 ± 0.011"}, {"sequence": "EGEERGEGQVRA", "protein stability index": "0.675 ± 0.0068"}, {"sequence": "EGGCCRMVGVVK", "protein stability index": "0.633 ± 0.0024"}, {"sequence": "EGGGASELGAPN", "protein stability index": "0.567 ± 0.095"}, {"sequence": "EGGGGKGRKRRA", "protein stability index": "0.712 ± 0.022"}, {"sequence": "EGGIYLQMCVGS", "protein stability index": "0.616 ± 0.035"}, {"sequence": "EGGTGNHSVSNQ", "protein stability index": "0.654 ± 0.022"}, {"sequence": "EGGVGGRAPRVR", "protein stability index": "0.747 ± 0.098"}, {"sequence": "EGITFGNDECWC", "protein stability index": "0.782 ± 0.095"}, {"sequence": "EGLNASGGGSGG", "protein stability index": "0.644 ± 0.07"}, {"sequence": "EGLPGGLRGCLR", "protein stability index": "0.687 ± 0.021"}, {"sequence": "EGLVRVCSRHYR", "protein stability index": "0.67 ± 0.0083"}, {"sequence": "EGNPPTRPRSLG", "protein stability index": "0.682 ± 0.052"}]}]}
